Data: patent US20240100162A1 (published 2024)

Key:
Test in all cases: killing
[1] = target: T1, MAGE-B2 peptide, G5S peptide on HLA-A*02:01 (human)
T1 peptide: GVYDSEEHSV

[2] = target: T2, MAGE-B2 peptide, E6A peptide on HLA-A*02:01 (human)
T2 peptide: GVYDGAEHSV

[3] = target: T3, MAGE-B2 peptide, E6C peptide on HLA-A*02:01 (human)
T3 peptide: GVYDGCEHSV

[4] = target: T4, MAGE-B2 peptide, E6M peptide on HLA-A*02:01 (human)
T4 peptide: GVYDGMEHSV

[5] = target: T5, MAGE-B2 peptide, E6Q peptide on HLA-A*02:01 (human)
T5 peptide: GVYDGQEHSV

[6] = target: T6, MAGE-B2 peptide, E6S peptide on HLA-A*02:01 (human)
T6 peptide: GVYDGSEHSV

[7] = target: T7, MAGE-B2 peptide, E6T peptide on HLA-A*02:01 (human)
T7 peptide: GVYDGTEHSV

[8] = target: T8, MAGE-B2 peptide, E7F peptide on HLA-A*02:01 (human)
T8 peptide: GVYDGEFHSV

[9] = target: T9, MAGE-B2 peptide, E7I peptide on HLA-A*02:01 (human)
T9 peptide: GVYDGEIHSV

[10] = target: T10, MAGE-B2 peptide, E7P peptide on HLA-A*02:01 (human)
T10 peptide: GVYDGEPHSV

[11] = target: T11, MAGE-B2 peptide, E7R peptide on HLA-A*02:01 (human)
T11 peptide: GVYDGERHSV

[12] = target: T12, MAGE-B2 peptide, E7S peptide on HLA-A*02:01 (human)
T12 peptide: GVYDGESHSV

[13] = target: T13, MAGE-B2 peptide, E7T peptide on HLA-A*02:01 (human)
T13 peptide: GVYDGETHSV

[14] = target: T14, MAGE-B2 peptide, E7W peptide on HLA-A*02:01 (human)
T14 peptide: GVYDGEWHSV

[15] = target: T15, MAGE-B2 peptide, H8A peptide on HLA-A*02:01 (human)
T15 peptide: GVYDGEEASV

[16] = target: T16, MAGE-B2 peptide, H8C peptide on HLA-A*02:01 (human)
T16 peptide: GVYDGEECSV

[17] = target: T17, MAGE-B2 peptide, H8D peptide on HLA-A*02:01 (human)
T17 peptide: GVYDGEEDSV

[18] = target: T18, MAGE-B2 peptide, H8E peptide on HLA-A*02:01 (human)
T18 peptide: GVYDGEEESV

[19] = target: T19, MAGE-B2 peptide, H8G peptide on HLA-A*02:01 (human)
T19 peptide: GVYDGEEGSV

[20] = target: T20, MAGE-B2 peptide, H8I peptide on HLA-A*02:01 (human)
T20 peptide: GVYDGEEISV

[21] = target: T21, MAGE-B2 peptide, H8K peptide on HLA-A*02:01 (human)
T21 peptide: GVYDGEEKSV

[22] = target: T22, MAGE-B2 peptide, H8L peptide on HLA-A*02:01 (human)
T22 peptide: GVYDGEELSV

[23] = target: T23, MAGE-B2 peptide, H8M peptide on HLA-A*02:01 (human)
T23 peptide: GVYDGEEMSV

[24] = target: T24, MAGE-B2 peptide, H8P peptide on HLA-A*02:01 (human)
T24 peptide: GVYDGEEPSV

[25] = target: T25, MAGE-B2 peptide, H8Q peptide on HLA-A*02:01 (human)
T25 peptide: GVYDGEEQSV

[26] = target: T26, MAGE-B2 peptide, H8R peptide on HLA-A*02:01 (human)
T26 peptide: GVYDGEERSV

[27] = target: T27, MAGE-B2 peptide, H8S peptide on HLA-A*02:01 (human)
T27 peptide: GVYDGEESSV

[28] = target: T28, MAGE-B2 peptide, H8T peptide on HLA-A*02:01 (human)
T28 peptide: GVYDGEETSV

[29] = target: T29, MAGE-B2 peptide, H8V peptide on HLA-A*02:01 (human)
T29 peptide: GVYDGEEVSV

[30] = target: T30, MAGE-B2 peptide, S9F peptide on HLA-A*02:01 (human)
T30 peptide: GVYDGEEHFV

[31] = target: T31, MAGE-B2 peptide, S9H peptide on HLA-A*02:01 (human)
T31 peptide: GVYDGEEHHV

[32] = target: T32, MAGE-B2 peptide, S9K peptide on HLA-A*02:01 (human)
T32 peptide: GVYDGEEHKV

[33] = target: T33, MAGE-B2 peptide, S9L peptide on HLA-A*02:01 (human)
T33 peptide: GVYDGEEHLV

[34] = target: T34, MAGE-B2 peptide, S9Y peptide on HLA-A*02:01 (human)
T34 peptide: GVYDGEEHYV

[35] = target: T35, MAGE-A4 peptide on HLA-A*02:01 (human)
T35 peptide: GVYDGREHTV

[36] = target: T36, MAGE-B2 peptide, G1A peptide on HLA-A*02:01 (human)
T36 peptide: AVYDGEEHSV

[37] = target: T37, MAGE-B2 peptide, Y3W peptide on HLA-A*02:01 (human)
T37 peptide: GVWDGEEHSV

[38] = target: T38, MAGE-B2 peptide, G1F peptide on HLA-A*02:01 (human)
T38 peptide: FVYDGEEHSV

[39] = target: T39, MAGE-B2 peptide, G1P peptide on HLA-A*02:01 (human)
T39 peptide: PVYDGEEHSV

[40] = target: T40, MAGE-B2 peptide, G1S peptide on HLA-A*02:01 (human)
T40 peptide: SVYDGEEHSV

[41] = target: T41, MAGE-B2 peptide, G1Y peptide on HLA-A*02:01 (human)
T41 peptide: YVYDGEEHSV

B1: TCR3 (TCR, V domains shown)
Valpha: AQKVTQAQTEISVVEKEDVTLDCVYETRDTTYYLFWYKQPPSGELVFLIRRNSFDEQNEISGRYSWNFQKSTSSFNFTITASQVVDSAVYFCALSVLRMDSSYKLIFGSGTRLLVRP
Vbeta: NAGVTQTPKFRVLKTGQSMTLLCAQDMNHEYMYWYRQDPGMGLRLIHYSVGEGTTAKGEVPDGYNVSRLKKQNFLLGLESAAPSQTSVYFCASSLQGAGQPQHFGDGTRLSIL
binding result [1]: recognises
binding result [2]: recognises
binding result [3]: recognises
binding result [4]: recognises
binding result [5]: recognises
binding result [6]: recognises
binding result [7]: recognises
binding result [8]: recognises
binding result [9]: recognises
binding result [10]: recognises
binding result [11]: recognises
binding result [12]: recognises
binding result [13]: recognises
binding result [14]: recognises
binding result [15]: recognises
binding result [16]: recognises
binding result [17]: recognises
binding result [18]: recognises
binding result [19]: recognises
binding result [20]: recognises
binding result [21]: recognises
binding result [22]: recognises
binding result [23]: recognises
binding result [24]: recognises
binding result [25]: recognises
binding result [26]: recognises
binding result [27]: recognises
binding result [28]: recognises
binding result [29]: recognises
binding result [30]: recognises
binding result [31]: recognises
binding result [32]: recognises
binding result [33]: recognises
binding result [34]: recognises
binding result [35]: recognises

B2: TCR2 (TCR, V domains shown)
Valpha: QKEVEQNSGPLSVPEGAIASLNCTYSDRGSQSFFWYRQYSGKSPELIMSIYSNGDKEDGRFTAQLNKASQYVSLLIRDSQPSDSATYLCAVNIPFSNSGGYQKVTFGTGTKLQVIP
Vbeta: NAGVTQTPKFRVLKTGQSMTLLCAQDMNHEYMYWYRQDPGMGLRLIHYSVGEGTTAKGEVPDGYNVSRLKKQNFLLGLESAAPSQTSVYFCASRHPGQYNQPQHFGDGTRLSIL
binding result [3]: recognises
binding result [4]: recognises
binding result [5]: recognises
binding result [6]: recognises
binding result [7]: recognises
binding result [36]: recognises
binding result [8]: recognises
binding result [9]: recognises
binding result [12]: recognises
binding result [13]: recognises
binding result [14]: recognises
binding result [15]: recognises
binding result [16]: recognises
binding result [17]: recognises
binding result [18]: recognises
binding result [19]: recognises
binding result [20]: recognises
binding result [21]: recognises
binding result [22]: recognises
binding result [23]: recognises
binding result [24]: recognises
binding result [25]: recognises
binding result [26]: recognises
binding result [27]: recognises
binding result [28]: recognises
binding result [29]: recognises
binding result [30]: recognises
binding result [31]: recognises
binding result [32]: recognises
binding result [33]: recognises
binding result [34]: recognises
binding result [35]: no recognition
binding result [37]: recognises

B3: TCR1 (TCR, V domains shown)
Valpha: KQEVTQIPAALSVPEGENLVLNCSFTDSAIYNLQWFRQDPGKGLTSLLLIQSSQREQTSGRLNASLDKSSGRSTLYIAASQPGDSATYLCAAMKTSYDKVIFGPGTSLSVIP
Vbeta: GEEVAQTPKHLVRGEGQKAKLYCAPIKGHSYVFWYQQVLKNEFKFLISFQNENVFDETGMPKERFSAKCLPNSPCSLEIQATKLEDSAVYFCASSQGQGGYGYTFGSGTRLTVV
binding result [1]: recognises
binding result [36]: recognises
binding result [10]: recognises
binding result [38]: recognises
binding result [39]: recognises
binding result [40]: recognises
binding result [41]: recognises
binding result [37]: recognises
